Results on 16 molecules are retold here after patent US20070072239A1 (Pfizer, published 2007).

This assay concerns the target T1, Wnt3 (human, UniProt P56703 22-355 at identity 1.00), limits assumed).
T1 chain: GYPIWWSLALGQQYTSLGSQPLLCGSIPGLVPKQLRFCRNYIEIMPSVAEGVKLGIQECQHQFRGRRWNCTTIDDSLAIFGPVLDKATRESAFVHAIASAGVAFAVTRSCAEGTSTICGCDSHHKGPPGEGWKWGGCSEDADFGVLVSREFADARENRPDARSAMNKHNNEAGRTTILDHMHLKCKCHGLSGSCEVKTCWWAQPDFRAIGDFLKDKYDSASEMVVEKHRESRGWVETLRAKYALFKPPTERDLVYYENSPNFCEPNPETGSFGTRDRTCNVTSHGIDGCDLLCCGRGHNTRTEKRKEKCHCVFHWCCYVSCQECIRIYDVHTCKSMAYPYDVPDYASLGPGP
Nature of the assay: cell-based or functional assay.

B1: human SFRP-2 (receptor)
chain: LFLFGQPDFSYKRSNCKPIPANLQLCHGIEYQNMRLPNLLGHETMKEVLEQAGAWIPLVMKQCHPDTKKFLCSLFAPVCLDDLDETIQPCHSLCVQVKDRCAPVMSAFGFPWPDMLECDRFPQDNDLCIPLASSDHLLPATEEAPKVCEACKNKNDDDNDIMETLCKNDFALKIKVKEITYINRDTKIILETKSKTIYKLNGVSERDLKKSVLWLKDSLQCTCEEMNDINAPYLVMGQKQGGELVITSVKRWQKGQREFKRISRSIRKLQC
For B1, the inhibition of Wnt3-mediated upregulation of the 16xTCF-Luciferase activity, relative to SFRP-1 (% less active) came out at 25.

B2: hOB SFRP-1 (human osteoblast secreted frizzled-related protein-1), wild-type full length (receptor)
chain: SEYDYVSFQSDIGPYQSGRFYTKPPQCVDIPADLRLCHNVGYKKMVLPNLLEHETMAEVKQQASSWVPLLNKNCHAGTQVFLCSLFAPVCLDRPIYPCRWLCEAVRDSCEPVMQFFGFYWPEMLKCDKFPEGDVCIAMTPPNATEASKPQGTTVCPPCDNELKSEAIIEHLCASEFALRMKIKEVKKENGDKKIVPKKKKPLKLGPIKKKDLKKLVLYLKNGADCPCHQLDNLSHHFLIMGRKVKSQYLLTAIHKWDKKNKEFKNFMKKMKNHECPTFQSVFK
B2 gave an inhibition of the Wnt-mediated upregulation of the 16xTCF-Luciferase reporter in U2OS cells of 90 % inhibition.

B3: SFRP-1 mutant with a total of 10 lysine residues in the hyaluronan domain changed into alanine (receptor)
chain: SEYDYVSFQSDIGPYQSGRFYTKPPQCVDIPADLRLCHNVGYKKMVLPNLLEHETMAEVKQQASSWVPLLNKNCHAGTQVFLCSLFAPVCLDRPIYPCRWLCEAVRDSCEPVMQFFGFYWPEMLKCDKFPEGDVCIAMTPPNATEASKPQGTTVCPPCDNELKSEAIIEHLCASEFALRMKIKEVKKENGDKKIVPAAAAPLALGPIAAADLAALVLYLKNGADCPCHQLDNLSHHFLIMGRKVKSQYLLTAIHKWDKKNKEFKNFMKKMKNHECPTFQSVFK
B3 yielded a loss of Wnt3 antagonist activity relative to SFRP-1 (TCF-Luciferase reporter) (% loss of activity) of 35.

B4: SFRP-1 tyrosine 73 to alanine mutant (receptor)
chain: SEYDYVSFQSDIGPYQSGRFYTKPPQCVDIPADLRLCHNVGAKKMVLPNLLEHETMAEVKQQASSWVPLLNKNCHAGTQVFLCSLFAPVCLDRPIYPCRWLCEAVRDSCEPVMQFFGFYWPEMLKCDKFPEGDVCIAMTPPNATEASKPQGTTVCPPCDNELKSEAIIEHLCASEFALRMKIKEVKKENGDKKIVPKKKKPLKLGPIKKKDLKKLVLYLKNGADCPCHQLDNLSHHFLIMGRKVKSQYLLTAIHKWDKKNKEFKNFMKKMKNHECPTFQSVFK
B4 showed a Wnt antagonist function compared to the wild type SFRP-1 (TCF-Luciferase reporter) (% of wild type SFRP-1) of 40.

B5: SFRP-1 CRD mutant LLEHE (amino acids 81-85) to HLHHS (receptor)
chain: SEYDYVSFQSDIGPYQSGRFYTKPPQCVDIPADLRLCHNVGYKKMVLPNHLHHSTMAEVKQQASSWVPLLNKNCHAGTQVFLCSLFAPVCLDRPIYPCRWLCEAVRDSCEPVMQFFGFYWPEMLKCDKFPEGDVCIAMTPPNATEASKPQGTTVCPPCDNELKSEAIIEHLCASEFALRMKIKEVKKENGDKKIVPKKKKPLKLGPIKKKDLKKLVLYLKNGADCPCHQLDNLSHHFLIMGRKVKSQYLLTAIHKWDKKNKEFKNFMKKMKNHECPTFQSVFK
In the case of B5, the loss of Wnt3 antagonist activity relative to SFRP-1 (TCF-Luciferase reporter) (% loss of activity) is 30.

B6: SFRP-1 hyaluronan-binding domain mutant, distal lysine residues to alanine (receptor)
chain: SEYDYVSFQSDIGPYQSGRFYTKPPQCVDIPADLRLCHNVGYKKMVLPNLLEHETMAEVKQQASSWVPLLNKNCHAGTQVFLCSLFAPVCLDRPIYPCRWLCEAVRDSCEPVMQFFGFYWPEMLKCDKFPEGDVCIAMTPPNATEASKPQGTTVCPPCDNELKSEAIIEHLCASEFALRMKIKEVKKENGDKKIVPKKKKPLKLGPIAAADLAALVLYLKNGADCPCHQLDNLSHHFLIMGRKVKSQYLLTAIHKWDKKNKEFKNFMKKMKNHECPTFQSVFK
As for B6, the loss of Wnt3 antagonist activity relative to SFRP-1 (TCF-Luciferase reporter) (% loss of activity) was 15.

B7: SFRP-1 tyrosine 73 to asparagine mutant (receptor)
chain: SEYDYVSFQSDIGPYQSGRFYTKPPQCVDIPADLRLCHNVGNKKMVLPNLLEHETMAEVKQQASSWVPLLNKNCHAGTQVFLCSLFAPVCLDRPIYPCRWLCEAVRDSCEPVMQFFGFYWPEMLKCDKFPEGDVCIAMTPPNATEASKPQGTTVCPPCDNELKSEAIIEHLCASEFALRMKIKEVKKENGDKKIVPKKKKPLKLGPIKKKDLKKLVLYLKNGADCPCHQLDNLSHHFLIMGRKVKSQYLLTAIHKWDKKNKEFKNFMKKMKNHECPTFQSVFK
For B7, the Wnt antagonist function compared to the wild type SFRP-1 (TCF-Luciferase reporter) (% of wild type SFRP-1) was determined as 40.

B8: SFRP-1 tyrosine 73 to aspartate mutant (receptor)
chain: SEYDYVSFQSDIGPYQSGRFYTKPPQCVDIPADLRLCHNVGDKKMVLPNLLEHETMAEVKQQASSWVPLLNKNCHAGTQVFLCSLFAPVCLDRPIYPCRWLCEAVRDSCEPVMQFFGFYWPEMLKCDKFPEGDVCIAMTPPNATEASKPQGTTVCPPCDNELKSEAIIEHLCASEFALRMKIKEVKKENGDKKIVPKKKKPLKLGPIKKKDLKKLVLYLKNGADCPCHQLDNLSHHFLIMGRKVKSQYLLTAIHKWDKKNKEFKNFMKKMKNHECPTFQSVFK
B8 gave a Wnt antagonist function compared to the wild type SFRP-1 (TCF-Luciferase reporter) (% of wild type SFRP-1) of 40.

B9: SFRP-1 tyrosine 73 to phenylalanine mutant (receptor)
chain: SEYDYVSFQSDIGPYQSGRFYTKPPQCVDIPADLRLCHNVGFKKMVLPNLLEHETMAEVKQQASSWVPLLNKNCHAGTQVFLCSLFAPVCLDRPIYPCRWLCEAVRDSCEPVMQFFGFYWPEMLKCDKFPEGDVCIAMTPPNATEASKPQGTTVCPPCDNELKSEAIIEHLCASEFALRMKIKEVKKENGDKKIVPKKKKPLKLGPIKKKDLKKLVLYLKNGADCPCHQLDNLSHHFLIMGRKVKSQYLLTAIHKWDKKNKEFKNFMKKMKNHECPTFQSVFK
B9 yielded a loss of Wnt antagonist function relative to SFRP-1 (TCF-Luciferase reporter) (% loss of function) of 20.

B10: SFRP-1 CRD mutant KKMVL to NMTKM (receptor)
chain: SEYDYVSFQSDIGPYQSGRFYTKPPQCVDIPADLRLCHNVGYNMTKMPNLLEHETMAEVKQQASSWVPLLNKNCHAGTQVFLCSLFAPVCLDRPIYPCRWLCEAVRDSCEPVMQFFGFYWPEMLKCDKFPEGDVCIAMTPPNATEASKPQGTTVCPPCDNELKSEAIIEHLCASEFALRMKIKEVKKENGDKKIVPKKKKPLKLGPIKKKDLKKLVLYLKNGADCPCHQLDNLSHHFLIMGRKVKSQYLLTAIHKWDKKNKEFKNFMKKMKNHECPTFQSVFK
In turn, B10 registered a loss of Wnt3 antagonist activity relative to SFRP-1 (TCF-Luciferase reporter) (% loss of activity) of 60.

B11: SFRP-1 CRD mutant … to … (receptor)
chain: SEYDYVSFQSDIGPYQSGRFYTKPPQCVDIPADLRLCKSLPWNMTKMPNLLEHETMAEVKQQASSWVPLLNKNCHAGTQVFLCSLFAPVCLDRPIYPCRWLCEAVRDSCEPVMQFFGFYWPEMLKCDKFPEGDVCIAMTPPNATEASKPQGTTVCPPCDNELKSEAIIEHLCASEFALRMKIKEVKKENGDKKIVPKKKKPLKLGPIKKKDLKKLVLYLKNGADCPCHQLDNLSHHFLIMGRKVKSQYLLTAIHKWDKKNKEFKNFMKKMKNHECPTFQSVFK
Take B11: the loss of Wnt3 antagonist activity relative to SFRP-1 (TCF-Luciferase reporter) (% loss of activity) turned out to be 45.

B12: SFRP-1 tyrosine 73 to serine mutant (receptor)
chain: SEYDYVSFQSDIGPYQSGRFYTKPPQCVDIPADLRLCHNVGSKKMVLPNLLEHETMAEVKQQASSWVPLLNKNCHAGTQVFLCSLFAPVCLDRPIYPCRWLCEAVRDSCEPVMQFFGFYWPEMLKCDKFPEGDVCIAMTPPNATEASKPQGTTVCPPCDNELKSEAIIEHLCASEFALRMKIKEVKKENGDKKIVPKKKKPLKLGPIKKKDLKKLVLYLKNGADCPCHQLDNLSHHFLIMGRKVKSQYLLTAIHKWDKKNKEFKNFMKKMKNHECPTFQSVFK
In turn, B12 had a Wnt antagonist function compared to the wild type SFRP-1 (TCF-Luciferase reporter) (% of wild type SFRP-1) of 40.

B13: 3' His tagged SFRP-1 (receptor)
chain: SEYDYVSFQSDIGPYQSGRFYTKPPQCVDIPADLRLCHNVGYKKMVLPNLLEHETMAEVKQQASSWVPLLNKNCHAGTQVFLCSLFAPVCLDRPIYPCRWLCEAVRDSCEPVMQFFGFYWPEMLKCDKFPEGDVCIAMTPPNATEASKPQGTTVCPPCDNELKSEAIIEHLCASEFALRMKIKEVKKENGDKKIVPKKKKPLKLGPIKKKDLKKLVLYLKNGADCPCHQLDNLSHHFLIMGRKVKSQYLLTAIHKWDKKNKEFKNFMKKMKNHECPTFQSVFKHHHHHH
Molecule B13 gave a loss of Wnt inhibitory function relative to SFRP-1 (TCF-Luciferase reporter) (% loss of function) of 30.

B14: truncated SFRP-1 (Δ167-314) containing the CRD alone (receptor)
chain: SEYDYVSFQSDIGPYQSGRFYTKPPQCVDIPADLRLCHNVGYKKMVLPNLLEHETMAEVKQQASSWVPLLNKNCHAGTQVFLCSLFAPVCLDRPIYPCRWLCEAVRDSCEPVMQFFGFYWPEMLKCDKFPEGDVC
Consider B14, for which the “Wnt antagonist activity relative to full length SFRP-1 (TCF-Luciferase reporter, U2OS cells)” value is ~80 % of full length SFRP-1 activity.

B15: human SFRP-3 (receptor)
chain: AACEPVRIPLCKSLPWNMTKMPNHLHHSTQDNAILAIEQFEGLLGTHCSPDLLFFLCAMYAPICTIDFQHEPIKPCKSVCERARQGCEPILIKYRHSWPENLACEELPVYDRGVCISPEAIVTADGADFPMDSSNGNCRGASSERCKCKPIRATQKTYFRNNYNYVIRAKVKEIKTKCHDVTAVVEVKEILKSSLVNIPRDTVNLYTSSGCLCPPLNVNEEYIIMGYEDEERSRLLLVEGSIAEKWKDRLGKKVKRWDMKLRHLGLSKSDSSNSDSTQSQKSGRNSNPRQARN
Molecule B15 came in with a Wnt3 antagonist function relative to SFRP-1 (TCF-Luciferase reporter) (% less active) of 60.

B16: SFRP-1/SFRP-2(1-295/285-295) chimera (receptor)
chain: SEYDYVSFQSDIGPYQSGRFYTKPPQCVDIPADLRLCHNVGYKKMVLPNLLEHETMAEVKQQASSWVPLLNKNCHAGTQVFLCSLFAPVCLDRPIYPCRWLCEAVRDSCEPVMQFFGFYWPEMLKCDKFPEGDVCIAMTPPNATEASKPQGTTVCPPCDNELKSEAIIEHLCASEFALRMKIKEVKKENGDKKIVPKKKKPLKLGPIKKKDLKKLVLYLKNGADCPCHQLDNLSHHFLIMGRKVKSQYLLTAIHKWDKKNKEFKRISRSIRKLQC
On to B16, for which the “Wnt3 inhibitory activity relative to SFRP-1 (TCF-Luciferase reporter)” value is ~20 % of SFRP-1 activity and the “loss of Wnt3 antagonist activity relative to SFRP-1 (TCF-Luciferase reporter)” value was ~70 % loss of activity.
